The values below are quoted from earlier work in publication PMC5031454.

For this series, the target named is Dscam1 Ig1-4 (Drosophila melanogaster) (UniProt Q0E9H9).
UniProt Q0E9H9, sequence (Q0E9H9 39-421): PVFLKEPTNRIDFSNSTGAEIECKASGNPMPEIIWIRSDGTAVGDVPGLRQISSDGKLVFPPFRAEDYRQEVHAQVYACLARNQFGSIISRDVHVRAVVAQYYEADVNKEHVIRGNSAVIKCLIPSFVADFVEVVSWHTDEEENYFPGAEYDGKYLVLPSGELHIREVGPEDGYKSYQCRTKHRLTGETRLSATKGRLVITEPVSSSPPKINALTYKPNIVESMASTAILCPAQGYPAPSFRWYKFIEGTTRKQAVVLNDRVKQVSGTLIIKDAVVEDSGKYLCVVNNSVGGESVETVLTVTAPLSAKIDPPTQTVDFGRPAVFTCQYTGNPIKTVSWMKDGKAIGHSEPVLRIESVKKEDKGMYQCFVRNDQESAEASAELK

In the case of “Slit-N N-terminal fragment (from UniProt P24014)”, the Kd (in general, the concentration at which binding is half-saturated) was 0.022 µM.
